Experimental findings from article PMC11417369, “DNA sequence and chromatin differentiate sequence-specific transcription factor binding in the human malaria parasite Plasmodium falciparum” are described below.

The labels stand for the following.
T1: SIP2 D1 (Plasmodium falciparum, UniProt C6KSN9 177-235)
T1 sequence: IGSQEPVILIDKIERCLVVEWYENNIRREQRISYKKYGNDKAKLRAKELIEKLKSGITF

B1: GTGCAC_negctrl_site108 (dsDNA)
DNA 1: TTGTTTAACTTGTTAAATATAATGTATCTGTGGATA
DNA 2: TATCCACAGATACATTATATTTAACAAGTTAAACAA
B2: GTGCAC_negctrl_site647 (dsDNA)
DNA 1: ATCAGTGATTAGGTTATATATAAAAATGAACTAATA
DNA 2: TATTAGTTCATTTTTATATATAACCTAATCACTGAT
B3: GTGCAC_negctrl_site384 (dsDNA)
DNA 1: TTATAATGAAATATATTCTTATTCTTTTTTTTTTTT
DNA 2: AAAAAAAAAAAAGAATAAGAATATATTTCATTATAA
B4: GTGCAC_site9498 (dsDNA)
DNA 1: ATTTGTGATTTGTGTGTGCACGTATTTACAGAACAA
DNA 2: TTGTTCTGTAAATACGTGCACACACAAATCACAAAT
B5: GTGCAC_negctrl_site659 (dsDNA)
DNA 1: TTGTTAATATGATAAAAGAGGAATATTCTCTTCCTA
DNA 2: TAGGAAGAGAATATTCCTCTTTTATCATATTAACAA
B6: GTGCAC_negctrl_site214 (dsDNA)
DNA 1: ACCCAAGAGAAAAGAGAAAGAAATATGTGTATATTG
DNA 2: CAATATACACATATTTCTTTCTCTTTTCTCTTGGGT
B7: GTGCAC_negctrl_site258 (dsDNA)
DNA 1: AATATTTTGTTATTTATTTAATCTAATATTATGATA
DNA 2: TATCATAATATTAGATTAAATAAATAACAAAATATT
B8: GTGCAC_negctrl_site217 (dsDNA)
DNA 1: TGACTTTGTTGAATTTGTCCTCTTAACTCATAATAT
DNA 2: ATATTATGAGTTAAGAGGACAAATTCAACAAAGTCA
B9: GTGCAC_negctrl_site391 (dsDNA)
DNA 1: TTTTTTATTTTAATGTATTATTTTTATGTAATATAT
DNA 2: ATATATTACATAAAAATAATACATTAAAATAAAAAA
B10: GTGCAC_negctrl_site586 (dsDNA)
DNA 1: ATATGATTATTATTATATAAATTATAAAGTCTAATA
DNA 2: TATTAGACTTTATAATTTATATAATAATAATCATAT
B11: GTGCAC_negctrl_site491 (dsDNA)
DNA 1: TTTTTTATTTTTTACATATTTAGCTCATATTTATAT
DNA 2: ATATAAATATGAGCTAAATATGTAAAAAATAAAAAA
B12: GTGCAC_negctrl_site670 (dsDNA)
DNA 1: TAAGACTATTAAAAAATTGAGTACATGAACTGTTCA
DNA 2: TGAACAGTTCATGTACTCAATTTTTTAATAGTCTTA
B13: GTGCAC_negctrl_site170 (dsDNA)
DNA 1: AATATATTTTGATATGAACAATTAATAATTTCAAAT
DNA 2: ATTTGAAATTATTAATTGTTCATATCAAAATATATT
B14: GTGCAC_negctrl_site563 (dsDNA)
DNA 1: ATTCAATAATTGTTTTTTTTCTTTTTGTTTTTGTTT
DNA 2: AAACAAAAACAAAAAGAAAAAAAACAATTATTGAAT
B15: GTGCAC_negctrl_site45 (dsDNA)
DNA 1: TTATGTTGCGAGTTCTTAAGATATAAAAAATTCTTC
DNA 2: GAAGAATTTTTTATATCTTAAGAACTCGCAACATAA
B16: GTGCAC_negctrl_site660 (dsDNA)
DNA 1: AATTAATTTATTTTATAAATAGTTAGATCGTCATAA
DNA 2: TTATGACGATCTAACTATTTATAAAATAAATTAATT
B17: GTGCAC_negctrl_site223 (dsDNA)
DNA 1: AAAAGATTAAGTAGAATAATGTTCTTTCCCAACATA
DNA 2: TATGTTGGGAAAGAACATTATTCTACTTAATCTTTT
B18: GTGCAC_negctrl_site191 (dsDNA)
DNA 1: TTTTAAATTGGAGTGGGCAGATTGATATTATTCTTC
DNA 2: GAAGAATAATATCAATCTGCCCACTCCAATTTAAAA
B19: GTGCAC_site9800 (dsDNA)
DNA 1: AATCATATTAGTATGGTGCAATATATATATAAATAT
DNA 2: ATATTTATATATATATTGCACCATACTAATATGATT
B20: GTGCAC_negctrl_site353 (dsDNA)
DNA 1: GAATATTTATGATGAACTATTAATTAATTTTACATA
DNA 2: TATGTAAAATTAATTAATAGTTCATCATAAATATTC
B21: GTGCAC_negctrl_site665 (dsDNA)
DNA 1: TTTTAAATCTTATATTCCCCACATAAATAGCTCTCT
DNA 2: AGAGAGCTATTTATGTGGGGAATATAAGATTTAAAA
B22: GTGCAC_negctrl_site613 (dsDNA)
DNA 1: TACTCAAAAATTAATTAGCATAATATATATAAAAAT
DNA 2: ATTTTTATATATATTATGCTAATTAATTTTTGAGTA
B23: GTGCAC_negctrl_site84 (dsDNA)
DNA 1: TTGAGCATAAAATTTGGAAACCTCAATCGGACAAAA
DNA 2: TTTTGTCCGATTGAGGTTTCCAAATTTTATGCTCAA
B24: GTGCAC_negctrl_site81 (dsDNA)
DNA 1: TTTATTAGATAACGATAAACGAAAAAAAAAAAATAA
DNA 2: TTATTTTTTTTTTTTCGTTTATCGTTATCTAATAAA
B25: GTGCAC_negctrl_site728 (dsDNA)
DNA 1: TTTTGTAAAATTAATTTATTATACATATATATTTCT
DNA 2: AGAAATATATATGTATAATAAATTAATTTTACAAAA
B26: GTGCAC_site10664 (dsDNA)
DNA 1: TATTCATATTTAAAGGTGCAATATTTATTTTGTACA
DNA 2: TGTACAAAATAAATATTGCACCTTTAAATATGAATA
B27: GTGCAC_negctrl_site43 (dsDNA)
DNA 1: ATTTATAAAATATAATTACATTTTTAAATAATAAAA
DNA 2: TTTTATTATTTAAAAATGTAATTATATTTTATAAAT
B28: GTGCAC_negctrl_site458 (dsDNA)
DNA 1: ATGTAATTATAAGATTAATATACATAATTATATGTA
DNA 2: TACATATAATTATGTATATTAATCTTATAATTACAT
B29: GTGCAC_site10258 (dsDNA)
DNA 1: GCGTGTGTACAATGAGTGCATATCTAAAGGGAAGAT
DNA 2: ATCTTCCCTTTAGATATGCACTCATTGTACACACGC
B30: GTGCAC_negctrl_site403 (dsDNA)
DNA 1: TATTTCATCTTTTAAGAAGGTACCCATATGTCATAT
DNA 2: ATATGACATATGGGTACCTTCTTAAAAGATGAAATA
B31: GTGCAC_negctrl_site296 (dsDNA)
DNA 1: ATTTAAAATAGAAGTTATATTTATATGGGTGAAAAA
DNA 2: TTTTTCACCCATATAAATATAACTTCTATTTTAAAT
B32: GTGCAC_negctrl_site349 (dsDNA)
DNA 1: AAATAAAAATAAAATAAAATAAAATTAAATGGGAAT
DNA 2: ATTCCCATTTAATTTTATTTTATTTTATTTTTATTT
B33: GTGCAC_negctrl_site608 (dsDNA)
DNA 1: TAATGAGGAAAAAGTGTGTTAAGATTTTATAATTTA
DNA 2: TAAATTATAAAATCTTAACACACTTTTTCCTCATTA
B34: GTGCAC_negctrl_site578 (dsDNA)
DNA 1: TTTTATTTTATTCAATTTTTACTTTTATAAAAATAT
DNA 2: ATATTTTTATAAAAGTAAAAATTGAATAAAATAAAA
B35: GTGCAC_negctrl_site292 (dsDNA)
DNA 1: TTACGTATGTATTATGTTGTATATGAAATTAAAAAA
DNA 2: TTTTTTAATTTCATATACAACATAATACATACGTAA

One data set has as its target T1, SIP2 D1. The data set can be described thus: gcPBM; about 25 ug protein; PBS, 1% milk, 0.2 mg/ml BSA, salmon testes DNA, 0.03% Triton X-100. Particulars: tags: N-terminal GST (pGEX-4T-1), kept; label: surface-attached array probe.
B1: the binding signal was 6.74 ln median PBM intensity, better of two orientations.

In the case of B2, the binding signal was 6.8 ln median PBM intensity, better of two orientations.

Regarding B3, the binding signal was 6.7 ln median PBM intensity, better of two orientations.

In the case of B4, the binding signal was 9.78 ln median PBM intensity, better of two orientations.

As to B5, the binding signal was 6.7 ln median PBM intensity, better of two orientations.

Consider B6, for which the binding signal is 6.82 ln median PBM intensity, better of two orientations.

For B7, the binding signal is 6.61 ln median PBM intensity, better of two orientations.

As to B8, the binding signal is 6.72 ln median PBM intensity, better of two orientations.

Consider B9, for which the binding signal was 6.72 ln median PBM intensity, better of two orientations.

In the case of B10, the binding signal is 6.69 ln median PBM intensity, better of two orientations.

As for B11, the binding signal is 6.81 ln median PBM intensity, better of two orientations.

As to B12, the binding signal is 6.86 ln median PBM intensity, better of two orientations.

Consider B13, for which the binding signal was 6.86 ln median PBM intensity, better of two orientations.

As for B14, the binding signal was 6.64 ln median PBM intensity, better of two orientations.

In the case of B15, the binding signal was 6.87 ln median PBM intensity, better of two orientations.

In the case of B16, the binding signal was 6.78 ln median PBM intensity, better of two orientations.

B17: the binding signal was 6.44 ln median PBM intensity, better of two orientations.

For the molecule B18, the binding signal is 6.81 ln median PBM intensity, better of two orientations.

Take B19: the binding signal is 9.96 ln median PBM intensity, better of two orientations.

As to B20, the binding signal is 6.72 ln median PBM intensity, better of two orientations.

For B21, the binding signal is 6.72 ln median PBM intensity, better of two orientations.

With B22, the binding signal was 6.83 ln median PBM intensity, better of two orientations.

On to B23, for which the binding signal was 6.59 ln median PBM intensity, better of two orientations.

Take B24: the binding signal was 6.8 ln median PBM intensity, better of two orientations.

Regarding B25, the binding signal was 6.83 ln median PBM intensity, better of two orientations.

As to B26, the binding signal is 9.97 ln median PBM intensity, better of two orientations.

For the molecule B27, the binding signal is 6.72 ln median PBM intensity, better of two orientations.

B28: the binding signal is 6.75 ln median PBM intensity, better of two orientations.

In the case of B29, the binding signal is 9.38 ln median PBM intensity, better of two orientations.

Another data set concerns the target AP2-I D3 (Plasmodium falciparum, UniProt Q8IJW6 910-1027). Described as above. The following applies: tags: N-terminal GST (pGEX-4T-1), kept; label: surface-attached array probe.
As to B1, the binding signal is 7.12 ln median PBM intensity, better of two orientations.

As to B2, the binding signal was 7.28 ln median PBM intensity, better of two orientations.

As to B3, the binding signal was 7.14 ln median PBM intensity, better of two orientations.

In the case of B30, the binding signal was 7.27 ln median PBM intensity, better of two orientations.

Consider B4, for which the binding signal was 10.7 ln median PBM intensity, better of two orientations.

As to B31, the binding signal is 7.29 ln median PBM intensity, better of two orientations.

B32: the binding signal was 7.26 ln median PBM intensity, better of two orientations.

On to B5, for which the binding signal is 6.7 ln median PBM intensity, better of two orientations.

Regarding B6, the binding signal is 7.02 ln median PBM intensity, better of two orientations.

Regarding B7, the binding signal is 6.98 ln median PBM intensity, better of two orientations.

Consider B8, for which the binding signal is 7.06 ln median PBM intensity, better of two orientations.

On to B9, for which the binding signal was 7.14 ln median PBM intensity, better of two orientations.

For the molecule B10, the binding signal is 6.95 ln median PBM intensity, better of two orientations.

B11: the binding signal is 7.12 ln median PBM intensity, better of two orientations.

Regarding B33, the binding signal was 7.28 ln median PBM intensity, better of two orientations.

B12: the binding signal was 7.11 ln median PBM intensity, better of two orientations.

Regarding B13, the binding signal was 7.19 ln median PBM intensity, better of two orientations.

Take B14: the binding signal is 6.85 ln median PBM intensity, better of two orientations.

With B15, the binding signal was 7.08 ln median PBM intensity, better of two orientations.

B16: the binding signal was 7.02 ln median PBM intensity, better of two orientations.

As to B17, the binding signal was 7.05 ln median PBM intensity, better of two orientations.

For the molecule B18, the binding signal is 7.28 ln median PBM intensity, better of two orientations.

For B34, the binding signal was 7.27 ln median PBM intensity, better of two orientations.

B19: the binding signal was 12 ln median PBM intensity, better of two orientations.

Take B20: the binding signal is 6.76 ln median PBM intensity, better of two orientations.

For the molecule B21, the binding signal is 7.16 ln median PBM intensity, better of two orientations.

In the case of B22, the binding signal was 7.28 ln median PBM intensity, better of two orientations.

As to B23, the binding signal was 6.92 ln median PBM intensity, better of two orientations.

As to B24, the binding signal is 7.19 ln median PBM intensity, better of two orientations.

With B35, the binding signal was 7.28 ln median PBM intensity, better of two orientations.

With B25, the binding signal was 7.06 ln median PBM intensity, better of two orientations.

As for B26, the binding signal was 11.2 ln median PBM intensity, better of two orientations.

On to B27, for which the binding signal was 7.13 ln median PBM intensity, better of two orientations.

Turning to B28, the binding signal is 7.02 ln median PBM intensity, better of two orientations.

Take B29: the binding signal is 10 ln median PBM intensity, better of two orientations.
